From PMC6226330 come the findings set out here.

Broadly, the Km is the substrate concentration at which the rate is half of its maximum.

Holding throughout (test): purified protein, by the assay type
Common to all, as to conditions: pH 8.0; 25.0 °C

Substrate in data set [1]: Nc1ccc(C(=O)O)c(F)c1
Substrate in data set [2]: Nc1ccc(C(=O)O)cc1
Substrate in data set [3]: Nc1ccc(C(=O)O)c(O)c1

B1: S. aureus DHPS (Staphylococcus aureus) (protein)
chain: MTKTKIMGILNVTPDSFSDGGKFNNVESAVTRVKAMMDEGADIIDVGGVSTRPGHEMITVEEELNRVLPVVEAIVGFDVKISVDTFRSEVAEACLKLGVDIINDQWAGLYDHRMFQVVAKYDAEIVLMHNGNGNRDEPVVEEMLTSLLAQAHQAKIAGIPSNKIWLDPGIGFAKTRNEEAEVMARLDELVATEYPVLLATSRKRFTKEMMGYDTTPVERDEVTAATTAYGIMKGVRAVRVHNVELNAKLAKGIDFLKENENARHNFS
Take B1: the Michaelis-Menten constant (Km) in data set [1] stood at 5 ± 2 µM; in data set [2], 2 ± 1 µM; in data set [3] it was 8 ± 1 µM. Moreover, the kcat in data set [1] amounted to 200 ± 20 min^–1; in data set [2] it was 170 ± 15 min^–1; in data set [3], 220 ± 10 min^–1.
